Experimental data published in PMC3616104, “Structural and Phylogenetic Studies with MjTX-I Reveal a Multi-Oligomeric Toxin – a Novel Feature in Lys49-PLA2s Protein Class” (PLoS ONE, 2013).

Experiments:
[1] = target: the molecule itself; test: dynamic light scattering; MjTX-I 1.5 mg/ml, 18 °C, 20 mM Tris-HCl pH 8.0
[2] = target: the molecule itself; test: dynamic light scattering; MjTX-I 1.5 mg/ml, 18 °C, 0.5, 2.0 and 10.0 mM Tris-HCl pH 8.0, two hours after addition of the buffer

B1: MjTX-I (myotoxin-I) from Bothrops moojeni venom (natural protein)
chain: SLVELGKMILQETGKNPVTSYGAYGCNCGVLGRGKPKDATDRCCYVHKCCYKKLTDCNPKKDRYSYSWKDKTIVCGENNSCLKELCECDKAVAICLRENLDTYNKKYKNNYLKPFCKKADPC
notes: Myotoxin-I (MjTX-I), Lys49-phospholipase A2 homologue from Bothrops moojeni venom, NCBI GI 17368325; about 14 kDa per monomer; also called Lys49-PLA2
stoichiometry N [1]: 4 | stoichiometry N [2]: 2
